{"source": "patent US20160257732A1", "binders": {"B1": {"name": "Antibody 10 (antibody, V domains shown)", "VH": "QVQLQQSGPGLVKPSQTLSLTCAISGDSVSSNSATWNWIRQSPSRGLEWLGRTYYRSKWYNDYADFLKRRITINPDTSNNEVSLRLTSVTPDDTALYYCARGGHITVFGVNIDAFDVWGQGTMVTVSS", "VL": "DIQMTQSPSSLSASVGDRITISCRTSQSLRSYLHWYQQKPGKAPKLLIYASSTLQSGVPSRFSGSGSGTDFTLTISNLQPEDFATYYCQLSRTFGQGTKVEIK"}, "B2": {"name": "Antibody 5 (antibody, V domains shown)", "VH": "QVQLQQSGPGLVKPSQTLSLTCAISGDRVSSNSAVWNWIRQSPSRGLEWLGRTYYRSKWYYDYAESVKSRIVIDPDTSKNQVSLQLNSVTPEDSAIYYCARGGHITVFGLNIDAYDIWGQGAMVTVSS", "VL": "DIQMTQSPSSLSASVGDRVTISCRAQSLSSYLHWYQQKPGQPPKLLIYAATTLQSGVPSRFSGSGSGTDFTLTISTFQAEDVATYYCQQSRTFGQGTKVEIK"}, "B3": {"name": "Antibody 6 (antibody, V domains shown)", "VH": "QVQLQQSGPGLVKPSQTLSLTCAISGDRVSSNSAVWNWIRQSPSRGLEWLGRTYYRSKWYYDYAESVKSRIVIDPDTSKNQVSLQLNSVTPEDSAIYYCARGGHITEFGLNIDAYDIWGQGAMVTVSS", "VL": "DIQMTQSPSSLSASVGDRVTISCRAQSLSSYLHWYQQKPGQPPKLLIYAATTLQSGVPSRFSGSGSGTDFTLTISTFQAEDVATYYCQQSRTFGQGTKVEIK"}, "B4": {"name": "Antibody 8 (antibody, V domains shown)", "VH": "QVQLQQSGPGLVKPSQTLSLTCVISGDTVSSNRATWNWMRQSPLRGLEWLGRTYYRSKWYNDYAVSVKSRVVINPDTSKNQVSLQLNTVTPDDSGVYFCARGGHITVFGVNIDAFDIWGLGTKVTVSS", "VL": "DIQMTQSPSSLSASVGDRVTISCRASQRLNSYLHWYQQTPGQAPKLLIYATSTLQSGVSPRFSGSGSGTDFTLTISSLQPEDVATYYCQLSRTFGHGTKVEIK"}}, "key": {"[1]": {"target": "recombinant HA (rHA), subtype H2 (A/Swine/MO/06 (H2N3)) (influenza A virus)", "assay": "ELISA, coated rHA"}, "[2]": {"target": "recombinant HA (rHA), subtype H3 (A/Perth/16/09 (H3N2)) (influenza A virus)", "assay": "ELISA, coated rHA"}, "[3]": {"target": "recombinant HA (rHA), subtype H5 (A/Vietnam/1203/04(H5N1)) (influenza A virus)", "assay": "ELISA, coated rHA"}, "[4]": {"target": "recombinant HA (rHA), subtype H6 (A/teal/HK/W312/97(H6N1)) (influenza A virus)", "assay": "ELISA, coated rHA"}, "[5]": {"target": "recombinant HA (rHA), subtype H7 (A/Netherlands/219/03(H7N7)) (influenza A virus)", "assay": "ELISA, coated rHA"}, "[6]": {"target": "recombinant HA (rHA), subtype H9 (A/chicken/HK/G9/97(H9N2)) (influenza A virus)", "assay": "ELISA, coated rHA"}, "[7]": {"target": "His-tagged HA subtype H1 (A/California/7/04 (H1N1)) (influenza A virus)", "assay": "Octet BLI, His-tagged HA on anti-His sensors"}, "[8]": {"target": "His-tagged HA subtype H3 (A/Perth/16/09 (H3N2)) (influenza A virus)", "assay": "Octet BLI, His-tagged HA on anti-His sensors"}}}
{"binder": "B1", "values": [{"measurement": "EC50", "setting": "[1]", "value": 0.075, "unit": "µg/mL"}, {"measurement": "EC50", "setting": "[2]", "value": 0.049, "unit": "µg/mL"}, {"measurement": "EC50", "setting": "[3]", "value": 0.058, "unit": "µg/mL"}, {"measurement": "EC50", "setting": "[4]", "value": 0.097, "unit": "µg/mL"}, {"measurement": "EC50", "setting": "[5]", "value": 0.034, "unit": "µg/mL"}, {"measurement": "EC50", "setting": "[6]", "value": 2.7, "unit": "µg/mL"}]}
{"binder": "B2", "values": [{"measurement": "EC50", "setting": "[1]", "value": 0.048, "unit": "µg/mL"}, {"measurement": "EC50", "setting": "[2]", "value": 0.03, "unit": "µg/mL"}, {"measurement": "EC50", "setting": "[3]", "value": 0.041, "unit": "µg/mL"}, {"measurement": "EC50", "setting": "[4]", "value": 0.047, "unit": "µg/mL"}, {"measurement": "EC50", "setting": "[5]", "value": 0.024, "unit": "µg/mL"}, {"measurement": "EC50", "setting": "[6]", "value": "> 6", "unit": "µg/mL"}, {"measurement": "Kd", "setting": "[7]", "value": 0.005, "unit": "nM"}, {"measurement": "koff", "setting": "[7]", "value": "< 5e-06", "unit": "s⁻¹"}, {"measurement": "kon", "setting": "[7]", "value": "1e+06", "unit": "M⁻¹ s⁻¹"}, {"measurement": "Kd", "setting": "[8]", "value": 0.338, "unit": "nM"}, {"measurement": "koff", "setting": "[8]", "value": "8.8e-05", "unit": "s⁻¹"}, {"measurement": "kon", "setting": "[8]", "value": 260000, "unit": "M⁻¹ s⁻¹"}]}
{"binder": "B3", "values": [{"measurement": "EC50", "setting": "[1]", "value": 0.213, "unit": "µg/mL"}, {"measurement": "EC50", "setting": "[2]", "value": 0.064, "unit": "µg/mL"}, {"measurement": "EC50", "setting": "[3]", "value": 0.256, "unit": "µg/mL"}, {"measurement": "EC50", "setting": "[4]", "value": 0.214, "unit": "µg/mL"}, {"measurement": "EC50", "setting": "[5]", "value": 0.116, "unit": "µg/mL"}, {"measurement": "EC50", "setting": "[6]", "value": "> 6", "unit": "µg/mL"}]}
{"binder": "B4", "values": [{"measurement": "EC50", "setting": "[1]", "value": 0.058, "unit": "µg/mL"}, {"measurement": "EC50", "setting": "[2]", "value": 0.067, "unit": "µg/mL"}, {"measurement": "EC50", "setting": "[3]", "value": 0.044, "unit": "µg/mL"}, {"measurement": "EC50", "setting": "[4]", "value": 0.091, "unit": "µg/mL"}, {"measurement": "EC50", "setting": "[5]", "value": 0.015, "unit": "µg/mL"}, {"measurement": "EC50", "setting": "[6]", "value": "> 6", "unit": "µg/mL"}]}
